Assay results taken from CN113583112A.

Legend:
AAVXL32.1蛋白衣壳 [1] = test: BLI (Fortebio), mAb002 2 ug/ml on protein G biosensor, antigen at 2.25 nM in PBS
AAVXL32.1蛋白衣壳 [2] = test: BLI (Fortebio), mAb002 on protein G biosensor, antigen at 2.25 nM
AAVXL32.1蛋白衣壳 [3] = test: BLI (Fortebio), mAb002 on protein G biosensor, antigen at 0.0703 nM
AAVXL32.1蛋白衣壳 [4] = test: BLI (Fortebio), mAb002 2 ug/ml on protein G biosensor, antigen at 1.13 nM in PBS
AAVXL32.1蛋白衣壳 [5] = test: BLI (Fortebio), mAb002 on protein G biosensor, antigen at 0.5625 nM
AAVXL32.1蛋白衣壳 [6] = test: BLI (Fortebio), mAb002 on protein G biosensor, antigen at 1.13 nM
AAVXL32.1蛋白衣壳 [7] = test: BLI (Fortebio), mAb002 on protein G biosensor, antigen at 0.1406 nM
AAVXL32.1蛋白衣壳 [8] = test: BLI (Fortebio), mAb002 on protein G biosensor, antigen at 0.2813 nM
AAVXL32.1蛋白衣壳 [9] = test: BLI (Fortebio), mAb002 2 ug/ml on protein G biosensor, antigen at 0.2813 nM in PBS
AAVXL32.1蛋白衣壳 [10] = test: BLI (Fortebio), mAb002 2 ug/ml on protein G biosensor, antigen at 0.5625 nM in PBS
AAVXL32.1蛋白衣壳 [11] = test: BLI (Fortebio), mAb002 2 ug/ml on protein G biosensor, antigen at 0.1406 nM in PBS
AAVXL32.1蛋白衣壳 [12] = test: BLI (Fortebio), mAb002 2 ug/ml on protein G biosensor, antigen at 0.0703 nM in PBS

B1: mAb002抗体 (antibody, V domains shown)
VH: QVQLQQPGAELVRPGTSVKLSCKASGYTFISYWMHWVKQRPGQGLEWIGVIDPSDSYTNYNQKFKGKATLTVDTSSSTAYMQLSSLTSEDSAVYYCARYYYGSSRYFDVWGTGTTVTVSS
VL: YIQMTQTTSSLSASLGDRVTISCRASQDISNYLNWYQQKPDGTVKVLIYYTSRLHSGVPSRFSGSGSGTDYSLTISNLEQEDIATYFCQQSYTLPWTFGGGTKLEIK
响应 (AAVXL32.1蛋白衣壳 [1]): 5.91
Kd (AAVXL32.1蛋白衣壳 [2]): < 1 pM
koff (AAVXL32.1蛋白衣壳 [2]): < 1e-07 s⁻¹
kon (AAVXL32.1蛋白衣壳 [2]): 3.26e+06 M⁻¹ s⁻¹
Kd (AAVXL32.1蛋白衣壳 [3]): < 1 pM
koff (AAVXL32.1蛋白衣壳 [3]): < 1e-07 s⁻¹
kon (AAVXL32.1蛋白衣壳 [3]): 3.26e+06 M⁻¹ s⁻¹
响应 (AAVXL32.1蛋白衣壳 [4]): 4.83
Kd (AAVXL32.1蛋白衣壳 [5]): < 1 pM
koff (AAVXL32.1蛋白衣壳 [5]): < 1e-07 s⁻¹
kon (AAVXL32.1蛋白衣壳 [5]): 3.26e+06 M⁻¹ s⁻¹
Kd (AAVXL32.1蛋白衣壳 [6]): < 1 pM
koff (AAVXL32.1蛋白衣壳 [6]): < 1e-07 s⁻¹
kon (AAVXL32.1蛋白衣壳 [6]): 3.26e+06 M⁻¹ s⁻¹
Kd (AAVXL32.1蛋白衣壳 [7]): < 1 pM
koff (AAVXL32.1蛋白衣壳 [7]): < 1e-07 s⁻¹
kon (AAVXL32.1蛋白衣壳 [7]): 3.26e+06 M⁻¹ s⁻¹
Kd (AAVXL32.1蛋白衣壳 [8]): < 1 pM
koff (AAVXL32.1蛋白衣壳 [8]): < 1e-07 s⁻¹
kon (AAVXL32.1蛋白衣壳 [8]): 3.26e+06 M⁻¹ s⁻¹
响应 (AAVXL32.1蛋白衣壳 [9]): 1.4
响应 (AAVXL32.1蛋白衣壳 [10]): 2.68
响应 (AAVXL32.1蛋白衣壳 [11]): 0.701
响应 (AAVXL32.1蛋白衣壳 [12]): 0.338
